Test results published in paper PMC5651819, “AtSPX1 affects the AtPHR1–DNA-binding equilibrium by binding monomeric AtPHR1 in solution”.

Key:
MBP-AtdPHR1 = MBP-AtdPHR1 (Arabidopsis thaliana, UniProt Q94CL7 208-362); assay: SPR; 1:1 fit at 2.5 nM protein, n = 3; ka 3.5e4 M-1 s-1, kd 0.00049 s-1; SPR (Biacore 3000, SA chip, ~500 RU DNA): 10 mM HEPES pH 7.5, 200 mM NaCl, 0.01% Surfactant P-20, 25 C, 40 ul/min, with or without Pi/InsP6; conditions: protein: recombinant; tags: N-terminal MBP (pMAL-c2x); chain copies: 2; label: 5'-biotin on strand 1; blunt
GST-AtSPX1 = biological target: T1, GST-AtSPX1 (Arabidopsis thaliana, UniProt Q8LBH4 1-256); assay: SPR; ~1000 nM GST-AtSPX1 after buffer, with or without 5 mM Pi; low near-baseline signal taken as non-specific; SPR (Biacore 3000, SA chip, ~500 RU DNA): 10 mM HEPES pH 7.5, 200 mM NaCl, 0.01% Surfactant P-20, 25 C, 40 ul/min, with or without Pi/InsP6; conditions: protein: recombinant; tags: N-terminal GST (pGEX-2T); label: 5'-biotin on strand 1; blunt
T1 sequence: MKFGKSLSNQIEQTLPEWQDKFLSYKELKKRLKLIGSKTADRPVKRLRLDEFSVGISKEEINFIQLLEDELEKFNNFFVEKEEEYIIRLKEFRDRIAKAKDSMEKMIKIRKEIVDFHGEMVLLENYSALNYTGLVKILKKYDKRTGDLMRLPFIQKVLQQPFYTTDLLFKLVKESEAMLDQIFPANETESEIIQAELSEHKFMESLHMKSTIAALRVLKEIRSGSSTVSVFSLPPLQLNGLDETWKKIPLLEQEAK

MBP-AtdPHR1, sequence (Q94CL7 208-362): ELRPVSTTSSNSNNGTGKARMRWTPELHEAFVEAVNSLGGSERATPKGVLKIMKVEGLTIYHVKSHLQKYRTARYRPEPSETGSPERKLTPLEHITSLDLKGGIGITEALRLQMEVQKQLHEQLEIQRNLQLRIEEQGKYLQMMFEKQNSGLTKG

B1: 2x P1BS probe (dsDNA)
DNA 1: CAGAGAAAAAAGGATATTCTAATTAGAAACCTTAAGAATATTCTTTTTAATCCC
DNA 2: GGGATTAAAAAGAATATTCTTAAGGTTTCTAATTAGAATATCCTTTTTTCTCTG
B1 was tested, and the Kd (MBP-AtdPHR1) was 14 ± 2.4 nM and the binding result (GST-AtSPX1) was “no binding”.
